Paper PMC6400558 (2019)
Numbering of substitutions follows the chain as printed. Numbers in names are those of the source.

T1: dynein intermediate chain (DIC), Q13409
T1 chain: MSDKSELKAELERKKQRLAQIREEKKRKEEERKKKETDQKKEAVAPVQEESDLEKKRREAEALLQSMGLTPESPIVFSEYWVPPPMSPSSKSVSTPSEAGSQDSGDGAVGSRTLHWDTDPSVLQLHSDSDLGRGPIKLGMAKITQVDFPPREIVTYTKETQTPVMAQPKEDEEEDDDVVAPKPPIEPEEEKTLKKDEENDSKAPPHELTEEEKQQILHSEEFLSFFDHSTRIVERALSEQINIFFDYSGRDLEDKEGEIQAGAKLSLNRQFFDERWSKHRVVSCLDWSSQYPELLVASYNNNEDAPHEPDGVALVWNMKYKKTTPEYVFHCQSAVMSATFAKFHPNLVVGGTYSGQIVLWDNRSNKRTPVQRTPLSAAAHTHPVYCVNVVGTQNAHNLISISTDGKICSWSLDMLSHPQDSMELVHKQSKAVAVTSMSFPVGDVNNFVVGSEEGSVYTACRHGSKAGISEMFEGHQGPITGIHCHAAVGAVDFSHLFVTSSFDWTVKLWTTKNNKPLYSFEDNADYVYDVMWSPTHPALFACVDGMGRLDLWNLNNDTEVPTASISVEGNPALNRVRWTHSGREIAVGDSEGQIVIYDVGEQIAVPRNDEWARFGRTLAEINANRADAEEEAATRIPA

B1: MBP-tagged Hook2 Hook+CC1 (N427) WT, Q96ED9 I150A (protein)
chain: MSVDKAELCGSLLTWLQTFHVPSPCASPQDLSSGLAVAYVLNQIDPSWFNEAWLQGISEDPGPNWKLKVSNLKMVLRSLVEYSQDVLAHPVSEEHLPDVSLIGEFSDPAELGKLLQLVLGCAISCEKKQDHIQRIMTLEESVQHVVMEAAQELMTKDTPDSLSPETYGNFDSQSRRYYFLSEEAEEGDELQQRCLDLERQLMLLSEEKQSLAQENAGLRERMGRPEGEGTPGLTAKKLLLLQSQLEQLQEENFRLESGREDERLRCAELEREVAELQHRNQALTSLAQEAQALKDEMDELRQSSERAGQLEATLTSCRRRLGELRELRRQVRQLEERNAGHAERTRQLEDELRRAGSLRAQLEAQRRQVQELQGQRQEEAMKAEKWLFECRNLEEKYESVTKEKERLLAERDSLREANEELRCAQLQ
B2: MBP-tagged Hook2 Hook+CC1 (N427) WT, Q96ED9 Q143A (protein)
chain: B1 chain with Q143A, A150I

Biological target: T1, dynein intermediate chain (DIC), Q13409
Assay: MBP pull-down from HEK293T cell lysate, immunoblot, band intensity quantified
Details: chain shown with the change; n = 3; parent: est. 0.46; read off a plot

Row | Binder | response (Pulldown/Input)
1 | B1 | 0.02
2 | B2 | 0.02
